What is called koff is a measure of how fast the partners let go of each other. Read a low koff as slow dissociation. For orientation: Kd means the equilibrium constant for the complex coming apart. Read a low Kd as a tighter complex.

3 molecules from article PMC9753469 (2022) can be followed below.

B1: MBP-KRAB (ZNF93 KRAB E35R) (domain or fragment)
chain: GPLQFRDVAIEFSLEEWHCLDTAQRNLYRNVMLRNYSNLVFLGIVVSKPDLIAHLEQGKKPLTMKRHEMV
B2: KAP1 RBCC (wild type), SPR analyte (domain or fragment)
chain: SPAGGGAEALELLEHCGVCRERLRPEREPRLLPCLHSACSACLGPAAPAAANSSGDGGAAGDGTVVDCPVCKQQCFSKDIVENYFMRDSGSKAATDAQDANQCCTSCEDNAPATSYCVECSEPLCETCVEAHQRVKYTKDHTVRSTGPAKSRDGERTVYCNVHKHEPLVLFCESCDTLTCRDCQLNAHKDHQYQFLEDAVRNQRKLLASLVKRLGDKHATLQKSTKEVRSSIRQVSDVQKRVQVDVKMAILQIMKELNKRGRVLVNDAQKVTEGQQERLERQHWTMTKIQKHQEHILRFASWALESDNNTALLLSKKLIYFQLHRALKMIVDPVEPHGEMKFQWDLNAWTKSAEAFGKIVAERP
B3: MBP-KRAB (ZNF93 KRAB, wild type) (domain or fragment)
chain: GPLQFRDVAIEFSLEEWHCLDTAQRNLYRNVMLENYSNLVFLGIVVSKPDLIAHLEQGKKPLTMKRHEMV

Test [1] concerns the target T1, KAP1 RBCC R311E, SPR analyte (human (by the printed UniProt entry), UniProt Q13263 1-835, R311E). In words: SPR; major phase. Background: Surface plasmon resonance follows binding to a sensor surface in real time, without labels.
In test [2] the target is T1, KAP1 RBCC R311E, SPR analyte. The test can be described thus: SPR; minor phase.
Test [3] concerns the target B3. In words: SPR; major phase.
Test [4] addresses B1. The test can be described thus: SPR; major phase.
The target of test [5] is B3. The test can be described thus: SPR; minor phase.
Test [6] deals with B1. The test can be described thus: SPR; minor phase.
For test [7], the target named is B3. In words: SPR; minor phase. This is another data set of the same source.
The target of test [8] is T1, KAP1 RBCC R311E, SPR analyte. The test can be described thus: SPR.
Test [9] shares this target. The test can be described thus: SPR; major phase. The source holds these as a separate data set.

In [1], B1 returned a dissociation rate constant (koff) of 0.0037 s⁻¹. Further, binding in test [2] was put at a Kd of 35.6 µM.

On to B2, for which the off-rate (koff) was determined as 0.000232 s⁻¹ in test [3], 0.008 s⁻¹ in test [4] and 0.0061 s⁻¹ in test [7]. Also, the Kd in [5] came out at 19 µM; in test [6] it was 47 µM.

In test [1], B3 gave a koff of 0.00083 s⁻¹. Besides, the dissociation constant (Kd) in test [2] was found to be 2 µM; in [8] it was 29 nM; in [9] it was 29 nM.
